Measured values from patent publication US20220204580A1 (AstraZeneca / MedImmune, published 2022).
Numbered stars: 1 amine (or outer) side, 2 acyl side, 3 side chain; on linkers, the order of the positions; unused ones are H or OH. Bridge positions count the residues as written; N and C are the ends. Square brackets hold non-standard residues; d marks the D form. Side chains are listed from the residue outwards. Ends that are not written are not given here. * marks the point of attachment. C18 diacid = O=C(O)CCCCCCCCCCCCCCCCC(=O)*; γGlu = O=C(O)[C@H](CCC(=O)[*:2])N[*:1]; αMeF = C[C@](N)(Cc1ccccc1)C(=O)O; Dab = NCC[C@H](N)C(=O)O; Aib = CC(C)(N)C(=O)O

T1: human amylin receptor (calcitonin receptor co-expressed with receptor activity modifying protein, RAMP3) (human, UniProt P30988 25-474; O60896 24-148)
T1 sequence (looked up) 1: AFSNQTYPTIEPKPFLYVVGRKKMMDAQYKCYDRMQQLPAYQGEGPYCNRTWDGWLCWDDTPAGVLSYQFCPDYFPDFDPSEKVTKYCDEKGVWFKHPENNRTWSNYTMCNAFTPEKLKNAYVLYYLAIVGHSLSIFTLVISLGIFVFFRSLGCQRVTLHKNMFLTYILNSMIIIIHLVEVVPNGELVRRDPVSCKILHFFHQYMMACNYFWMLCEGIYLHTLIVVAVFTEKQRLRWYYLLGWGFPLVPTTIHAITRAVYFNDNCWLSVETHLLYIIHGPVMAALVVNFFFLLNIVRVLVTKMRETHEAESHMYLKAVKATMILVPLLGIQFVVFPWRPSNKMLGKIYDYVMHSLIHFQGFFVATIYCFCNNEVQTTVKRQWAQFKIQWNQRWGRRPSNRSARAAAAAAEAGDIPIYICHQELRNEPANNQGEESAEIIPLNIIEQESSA
T1 sequence (looked up) 2: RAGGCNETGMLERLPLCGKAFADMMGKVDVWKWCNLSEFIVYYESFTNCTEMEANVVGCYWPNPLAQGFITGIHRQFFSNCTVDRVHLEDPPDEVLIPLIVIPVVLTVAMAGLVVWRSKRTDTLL

T2: human calcitonin receptor (human, UniProt P30988 25-474)
T2 sequence (looked up): T1 sequence (looked up) 1

B1: Peptide 26 (SEQ ID NO: 26) (peptide)
peptide: K([γGlu-γGlu-C18 diacid])CNTATCATQRLANFL[Aib]HSSNN[αMeF]GPILPPTNVGSNTY-NH2
modifications: disulfide 2-7; N-terminus assumed
SMILES: CC[C@H](C)[C@H](NC(=O)[C@@H]1CCCN1C(=O)CNC(=O)[C@](C)(Cc1ccccc1)NC(=O)[C@H](CC(N)=O)NC(=O)[C@H](CC(N)=O)NC(=O)[C@H](CO)NC(=O)[C@H](CO)NC(=O)[C@H](Cc1c[nH]cn1)NC(=O)C(C)(C)NC(=O)[C@H](CC(C)C)NC(=O)[C@H](Cc1ccccc1)NC(=O)[C@H](CC(N)=O)NC(=O)[C@H](C)NC(=O)[C@H](CC(C)C)NC(=O)[C@H](CCCNC(=N)N)NC(=O)[C@H](CCC(N)=O)NC(=O)[C@@H](NC(=O)[C@H](C)NC(=O)[C@@H]1CSSC[C@H](NC(=O)[C@@H](N)CCCCNC(=O)CC[C@H](NC(=O)CC[C@H](NC(=O)CCCCCCCCCCCCCCCCC(=O)O)C(=O)O)C(=O)O)C(=O)N[C@@H](CC(N)=O)C(=O)N[C@@H]([C@@H](C)O)C(=O)N[C@@H](C)C(=O)N[C@@H]([C@@H](C)O)C(=O)N1)[C@@H](C)O)C(=O)N[C@@H](CC(C)C)C(=O)N1CCC[C@H]1C(=O)N1CCC[C@H]1C(=O)N[C@H](C(=O)N[C@@H](CC(N)=O)C(=O)N[C@H](C(=O)NCC(=O)N[C@@H](CO)C(=O)N[C@@H](CC(N)=O)C(=O)N[C@H](C(=O)N[C@@H](Cc1ccc(O)cc1)C(N)=O)[C@@H](C)O)C(C)C)[C@@H](C)O
B2: Peptide 30 (SEQ ID NO: 30) (peptide)
peptide: K([γGlu-C18 diacid])KCNTATCATQRLANFL[Aib]HSS[Dab]NFGPILPPTEVGSNTY-NH2
modifications: disulfide 3-8; N-terminus assumed
SMILES: CC[C@H](C)[C@H](NC(=O)[C@@H]1CCCN1C(=O)CNC(=O)[C@H](Cc1ccccc1)NC(=O)[C@H](CC(N)=O)NC(=O)[C@H](CCN)NC(=O)[C@H](CO)NC(=O)[C@H](CO)NC(=O)[C@H](Cc1c[nH]cn1)NC(=O)C(C)(C)NC(=O)[C@H](CC(C)C)NC(=O)[C@H](Cc1ccccc1)NC(=O)[C@H](CC(N)=O)NC(=O)[C@H](C)NC(=O)[C@H](CC(C)C)NC(=O)[C@H](CCCNC(=N)N)NC(=O)[C@H](CCC(N)=O)NC(=O)[C@@H](NC(=O)[C@H](C)NC(=O)[C@@H]1CSSC[C@H](NC(=O)[C@H](CCCCN)NC(=O)[C@@H](N)CCCCNC(=O)CC[C@H](NC(=O)CCCCCCCCCCCCCCCCC(=O)O)C(=O)O)C(=O)N[C@@H](CC(N)=O)C(=O)N[C@@H]([C@@H](C)O)C(=O)N[C@@H](C)C(=O)N[C@@H]([C@@H](C)O)C(=O)N1)[C@@H](C)O)C(=O)N[C@@H](CC(C)C)C(=O)N1CCC[C@H]1C(=O)N1CCC[C@H]1C(=O)N[C@H](C(=O)N[C@@H](CCC(=O)O)C(=O)N[C@H](C(=O)NCC(=O)N[C@@H](CO)C(=O)N[C@@H](CC(N)=O)C(=O)N[C@H](C(=O)N[C@@H](Cc1ccc(O)cc1)C(N)=O)[C@@H](C)O)C(C)C)[C@@H](C)O
B3: Peptide 25 (SEQ ID NO: 25) (peptide)
peptide: K([γGlu-C18 diacid])CNTATCATQRLANFLVHSSNN[αMeF]GPILPPTRVGSNTY-NH2
modifications: disulfide 2-7; N-terminus assumed
SMILES: CC[C@H](C)[C@H](NC(=O)[C@@H]1CCCN1C(=O)CNC(=O)[C@](C)(Cc1ccccc1)NC(=O)[C@H](CC(N)=O)NC(=O)[C@H](CC(N)=O)NC(=O)[C@H](CO)NC(=O)[C@H](CO)NC(=O)[C@H](Cc1c[nH]cn1)NC(=O)[C@@H](NC(=O)[C@H](CC(C)C)NC(=O)[C@H](Cc1ccccc1)NC(=O)[C@H](CC(N)=O)NC(=O)[C@H](C)NC(=O)[C@H](CC(C)C)NC(=O)[C@H](CCCNC(=N)N)NC(=O)[C@H](CCC(N)=O)NC(=O)[C@@H](NC(=O)[C@H](C)NC(=O)[C@@H]1CSSC[C@H](NC(=O)[C@@H](N)CCCCNC(=O)CC[C@H](NC(=O)CCCCCCCCCCCCCCCCC(=O)O)C(=O)O)C(=O)N[C@@H](CC(N)=O)C(=O)N[C@@H]([C@@H](C)O)C(=O)N[C@@H](C)C(=O)N[C@@H]([C@@H](C)O)C(=O)N1)[C@@H](C)O)C(C)C)C(=O)N[C@@H](CC(C)C)C(=O)N1CCC[C@H]1C(=O)N1CCC[C@H]1C(=O)N[C@H](C(=O)N[C@@H](CCCNC(=N)N)C(=O)N[C@H](C(=O)NCC(=O)N[C@@H](CO)C(=O)N[C@@H](CC(N)=O)C(=O)N[C@H](C(=O)N[C@@H](Cc1ccc(O)cc1)C(N)=O)[C@@H](C)O)C(C)C)[C@@H](C)O
B4: Peptide 29 (SEQ ID NO: 29) (peptide)
peptide: K([γGlu-C18 diacid])KCNTATCATQRLANFLVHSS[Dab]NFGPILPPTNVGSNTY-NH2
modifications: disulfide 3-8; N-terminus assumed
SMILES: CC[C@H](C)[C@H](NC(=O)[C@@H]1CCCN1C(=O)CNC(=O)[C@H](Cc1ccccc1)NC(=O)[C@H](CC(N)=O)NC(=O)[C@H](CCN)NC(=O)[C@H](CO)NC(=O)[C@H](CO)NC(=O)[C@H](Cc1c[nH]cn1)NC(=O)[C@@H](NC(=O)[C@H](CC(C)C)NC(=O)[C@H](Cc1ccccc1)NC(=O)[C@H](CC(N)=O)NC(=O)[C@H](C)NC(=O)[C@H](CC(C)C)NC(=O)[C@H](CCCNC(=N)N)NC(=O)[C@H](CCC(N)=O)NC(=O)[C@@H](NC(=O)[C@H](C)NC(=O)[C@@H]1CSSC[C@H](NC(=O)[C@H](CCCCN)NC(=O)[C@@H](N)CCCCNC(=O)CC[C@H](NC(=O)CCCCCCCCCCCCCCCCC(=O)O)C(=O)O)C(=O)N[C@@H](CC(N)=O)C(=O)N[C@@H]([C@@H](C)O)C(=O)N[C@@H](C)C(=O)N[C@@H]([C@@H](C)O)C(=O)N1)[C@@H](C)O)C(C)C)C(=O)N[C@@H](CC(C)C)C(=O)N1CCC[C@H]1C(=O)N1CCC[C@H]1C(=O)N[C@H](C(=O)N[C@@H](CC(N)=O)C(=O)N[C@H](C(=O)NCC(=O)N[C@@H](CO)C(=O)N[C@@H](CC(N)=O)C(=O)N[C@H](C(=O)N[C@@H](Cc1ccc(O)cc1)C(N)=O)[C@@H](C)O)C(C)C)[C@@H](C)O
B5: Peptide 27 (SEQ ID NO: 27) (peptide)
peptide: K([γGlu-γGlu-C18 diacid])CNIATCATQRLANFLVHSS[Dab]NFGPILPPTNVGSRTY-NH2
modifications: disulfide 2-7; N-terminus assumed
SMILES: CC[C@H](C)[C@@H]1NC(=O)[C@H](CC(N)=O)NC(=O)[C@@H](NC(=O)[C@@H](N)CCCCNC(=O)CC[C@H](NC(=O)CC[C@H](NC(=O)CCCCCCCCCCCCCCCCC(=O)O)C(=O)O)C(=O)O)CSSC[C@@H](C(=O)N[C@@H](C)C(=O)N[C@H](C(=O)N[C@@H](CCC(N)=O)C(=O)N[C@@H](CCCNC(=N)N)C(=O)N[C@@H](CC(C)C)C(=O)N[C@@H](C)C(=O)N[C@@H](CC(N)=O)C(=O)N[C@@H](Cc2ccccc2)C(=O)N[C@@H](CC(C)C)C(=O)N[C@H](C(=O)N[C@@H](Cc2c[nH]cn2)C(=O)N[C@@H](CO)C(=O)N[C@@H](CO)C(=O)N[C@@H](CCN)C(=O)N[C@@H](CC(N)=O)C(=O)N[C@@H](Cc2ccccc2)C(=O)NCC(=O)N2CCC[C@H]2C(=O)N[C@H](C(=O)N[C@@H](CC(C)C)C(=O)N2CCC[C@H]2C(=O)N2CCC[C@H]2C(=O)N[C@H](C(=O)N[C@@H](CC(N)=O)C(=O)N[C@H](C(=O)NCC(=O)N[C@@H](CO)C(=O)N[C@@H](CCCNC(=N)N)C(=O)N[C@H](C(=O)N[C@@H](Cc2ccc(O)cc2)C(N)=O)[C@@H](C)O)C(C)C)[C@@H](C)O)[C@@H](C)CC)C(C)C)[C@@H](C)O)NC(=O)[C@H]([C@@H](C)O)NC(=O)[C@H](C)NC1=O
B6: Peptide 28 (SEQ ID NO: 28) (peptide)
peptide: K([γGlu-C18 diacid])KCNTATCATQRLANFLVHSS[Dab]NFGPILPPTEVGSNTY-NH2
modifications: disulfide 3-8; N-terminus assumed
SMILES: CC[C@H](C)[C@H](NC(=O)[C@@H]1CCCN1C(=O)CNC(=O)[C@H](Cc1ccccc1)NC(=O)[C@H](CC(N)=O)NC(=O)[C@H](CCN)NC(=O)[C@H](CO)NC(=O)[C@H](CO)NC(=O)[C@H](Cc1c[nH]cn1)NC(=O)[C@@H](NC(=O)[C@H](CC(C)C)NC(=O)[C@H](Cc1ccccc1)NC(=O)[C@H](CC(N)=O)NC(=O)[C@H](C)NC(=O)[C@H](CC(C)C)NC(=O)[C@H](CCCNC(=N)N)NC(=O)[C@H](CCC(N)=O)NC(=O)[C@@H](NC(=O)[C@H](C)NC(=O)[C@@H]1CSSC[C@H](NC(=O)[C@H](CCCCN)NC(=O)[C@@H](N)CCCCNC(=O)CC[C@H](NC(=O)CCCCCCCCCCCCCCCCC(=O)O)C(=O)O)C(=O)N[C@@H](CC(N)=O)C(=O)N[C@@H]([C@@H](C)O)C(=O)N[C@@H](C)C(=O)N[C@@H]([C@@H](C)O)C(=O)N1)[C@@H](C)O)C(C)C)C(=O)N[C@@H](CC(C)C)C(=O)N1CCC[C@H]1C(=O)N1CCC[C@H]1C(=O)N[C@H](C(=O)N[C@@H](CCC(=O)O)C(=O)N[C@H](C(=O)NCC(=O)N[C@@H](CO)C(=O)N[C@@H](CC(N)=O)C(=O)N[C@H](C(=O)N[C@@H](Cc1ccc(O)cc1)C(N)=O)[C@@H](C)O)C(C)C)[C@@H](C)O

What follows are binders tested against T1, human amylin receptor (calcitonin …) (assay: cell-based or functional assay).

EC50 (cAMP production) [nM]	Ratio (EC50 hCTR / EC50 hAMYR3)	Binder
0.409	7	B1
0.873	12	B2
0.105	12	B3
0.243	34	B4
0.134	5	B5
0.39	23	B6

The binders below were run against T2, human calcitonin receptor (assay: cell-based or functional assay).

EC50 (cAMP production) [nM]	Binder
2.8	B1
10.5	B2
1.25	B3
8.21	B4
0.731	B5
9.14	B6
